The text below walks through data of PMC4255369, “Identification of structural determinants on tau protein essential for its pathological function: novel therapeutic target for tau immunotherapy in Alzheimer’s disease” (Alzheimer's Research & Therapy, 2014).

Common to all, as to conditions: both partners purified
Test [1] deals with T1, tau 268–273 (6-mer peptide from MTBR1) (Homo sapiens).
T1 construct: numbers count on: the longest human tau isoform (2N4R); also called HQPGGG; source: synthetic peptide, bought: EZBiolab (>95% purity)
T1 chain: HQPGGG
Kind of test: ELISA; competitive ELISA; plates coated with 250 ng/well purified tau 151-391/4R; DC8E8 0.6 μg/ml (3.8 nM), 60 μl mixed with 40 μl of 200 μM peptide, 1 hour at 25°C, then 1 hour at 25°C on the plate. Background: ELISA stands for enzyme-linked immunosorbent assay.

Test [2] addresses T2, tau 299–304 (6-mer peptide from MTBR2, identical to tau 362–367 from MTBR4) (Homo sapiens).
T2 construct: numbers count on: the longest human tau isoform (2N4R); source: synthetic peptide, bought: EZBiolab (>95% purity)
T2 chain: HVPGGG
The test is described as above.

Test [3] has as its target T3, tau 330–335 (6-mer peptide from MTBR3) (Homo sapiens).
T3 construct: human tau residues 330-335; numbers count on: the longest human tau isoform (2N4R); also called HKPGGG; source: synthetic peptide, bought: EZBiolab (>95% purity)
T3 chain: HKPGGG
The description is as above.

The target of test [4] is T4, human tau protein isoform 2N4R (Homo sapiens, isoform 2N4R (Tau-F, 441 …, UniProt P10636-8)).
T4 construct: human tau, longest isoform 2N4R (four repeats, two N-terminal inserts); also called full-length tau isoform 2N4R; physiological tau
T4 sequence (P10636 other isoform, or with tags, fused parts or gaps): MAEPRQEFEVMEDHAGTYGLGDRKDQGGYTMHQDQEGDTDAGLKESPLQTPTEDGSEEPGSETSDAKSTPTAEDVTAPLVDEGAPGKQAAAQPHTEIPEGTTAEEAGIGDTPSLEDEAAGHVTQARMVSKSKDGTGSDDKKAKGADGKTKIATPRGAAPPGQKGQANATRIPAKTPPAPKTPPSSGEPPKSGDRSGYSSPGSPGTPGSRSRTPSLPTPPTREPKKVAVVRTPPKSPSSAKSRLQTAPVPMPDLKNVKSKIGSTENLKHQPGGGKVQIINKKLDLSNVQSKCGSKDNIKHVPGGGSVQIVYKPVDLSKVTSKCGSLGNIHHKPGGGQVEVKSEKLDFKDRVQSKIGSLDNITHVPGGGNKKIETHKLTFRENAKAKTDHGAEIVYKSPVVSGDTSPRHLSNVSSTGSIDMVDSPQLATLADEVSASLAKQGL
Kind of test: SPR; Biacore 3000, CM5; DC8E8 captured (230 to 250 RU) by coupled polyclonal anti-mouse antibody; twofold serial dilutions of tau proteins injected at 50 μl/min; 25°C, PBS pH 7.4 with 0.005% P20; fitted to a two-phase reaction model. (SPR reads the build-up and loss of mass on a sensor chip optically.)

The target of test [5] is T5, mis-disordered tau protein 151-391/4R (human, UniProt P10636-8).
T5 construct: numbers count on: the longest human tau isoform (2N4R); source: purified
T5 sequence (P10636 468-708): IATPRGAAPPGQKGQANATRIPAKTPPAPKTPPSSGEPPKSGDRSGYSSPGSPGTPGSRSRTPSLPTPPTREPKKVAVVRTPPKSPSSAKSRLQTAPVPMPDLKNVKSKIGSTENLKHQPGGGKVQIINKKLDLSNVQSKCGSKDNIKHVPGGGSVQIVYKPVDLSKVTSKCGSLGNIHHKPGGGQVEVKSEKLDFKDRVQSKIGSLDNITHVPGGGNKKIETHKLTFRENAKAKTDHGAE
The test is described as above.

Test [6] has as its target T6, human tau protein isoform 2N3R (Homo sapiens, UniProt P10636-5).
T6 construct: human tau, isoform 2N3R (three repeats, two N-terminal inserts); also called three-repeat tau protein isoform 2N3R; full-length three-repeat tau protein
The description is as above.

In test [7] the target is T7, mis-disordered tau 151-391/3R (Homo sapiens, UniProt P10636-5).
T7 construct: numbers count on: the longest human tau isoform (2N4R); also called three-repeat mis-disordered truncated tau protein
T7 sequence (P10636 other isoform, or with tags, fused parts or gaps): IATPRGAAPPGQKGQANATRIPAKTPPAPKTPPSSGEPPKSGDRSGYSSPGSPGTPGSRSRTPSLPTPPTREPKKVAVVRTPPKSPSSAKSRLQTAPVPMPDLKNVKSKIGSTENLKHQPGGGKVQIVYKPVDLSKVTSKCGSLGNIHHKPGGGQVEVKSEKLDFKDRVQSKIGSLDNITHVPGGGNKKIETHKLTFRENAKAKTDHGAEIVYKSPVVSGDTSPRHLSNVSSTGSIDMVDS
The description is as above.

T6 sequence (P10636 other isoform, or with tags, fused parts or gaps): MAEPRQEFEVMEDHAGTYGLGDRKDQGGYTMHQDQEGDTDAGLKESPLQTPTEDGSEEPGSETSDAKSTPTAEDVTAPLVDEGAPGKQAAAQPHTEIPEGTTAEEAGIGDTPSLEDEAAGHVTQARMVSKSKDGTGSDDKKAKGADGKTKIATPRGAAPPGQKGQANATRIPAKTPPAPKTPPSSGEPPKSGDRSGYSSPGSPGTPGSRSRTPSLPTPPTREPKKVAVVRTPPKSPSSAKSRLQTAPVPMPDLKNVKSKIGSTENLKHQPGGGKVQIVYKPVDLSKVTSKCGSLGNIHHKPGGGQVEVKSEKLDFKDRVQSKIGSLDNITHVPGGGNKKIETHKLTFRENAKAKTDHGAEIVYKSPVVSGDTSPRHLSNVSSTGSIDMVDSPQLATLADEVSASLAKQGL

B1: monoclonal antibody DC8E8 (antibody, V domains shown)
VH: QVQLQQSGPELVKPGTSVKMPCKASGYIFTDYVISWVKQRTGQGLEWIGEIFPRSGSTYYNEKFKGKATLTADKSSNTAYMQLSSVTSEDSAVYFCARDYYGTSFAMDYWGQGTSVTVSS
VL: DIVMSQSPSSLAVSAGEKVTMSCKSSQSLLNSRTRKNYLAWYQQKPGQSPKLLIYWASTRESGVPDRFTGSGSGTDFTLTISSVQAEDLAVYYCKQSFYLRTFGGGTKLDIK
notes: the Fab of DC8E8 is deposited as PDB 4OZ4 (heavy chain of the Fab); the Fab of DC8E8 is deposited as PDB 4OZ4 (light chain); The crystal structure (4OZ4) is of the papain Fab without antigen; also called mAb DC8E8; source: mouse hybridoma (Balb/c spleen cells fused with NS0); hybridoma culture supernatant (indirect ELISA); purified antibody (protein G Sepharose)
B1: the binding result in test [1], in test [2] and in test [3] was “binds” each time. The dissociation rate constant (koff) (in general, the rate constant with which the complex falls apart) in test [4] was 0.04 s⁻¹; in test [5] it was 0.04 s⁻¹; in test [6] it was 0.4 s⁻¹; in test [7], 0.08 s⁻¹. For the same molecule, the on-rate (kon) (commonly a measure of how fast the partners come together) in test [4] was found to be 440000 M⁻¹ s⁻¹; in test [5], 2.9e+06 M⁻¹ s⁻¹; in test [6] it was 28000 M⁻¹ s⁻¹; in test [7] it was 150000 M⁻¹ s⁻¹. Further, the “fold affinity against full-length tau isoform 2N4R” value in test [5] stood at 7 fold. Moreover, in test [7], the “fold affinity against full-length tau isoform 2N3R” value was determined as 25 fold.
